According to the supplement of paper PMC9942255:
Values joined by “and” are separate entries in the source; they are usually repeats but may differ in a detail not shown here. Identical values can stand only once.

Tested on: Bacillus subtilis DB104 (SP-AmyQ fusion secretion)
Test: AmyQ secretion efficiency, weighted average sort bin (1 = best secretion, 10 = worst) (bin number (weighted average, 1-10)); higher = lower secretion efficiency
Outline: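 In this assay, the secretion score is defined as the average bin number weighted by read frequency, normalised to beads per bin, with low-abundance sequences not counted. B. subtilis DB104 cells expressing mature AmyQ behind designed signal peptides (amyE-integrated) were enclosed with fluorescein-starch in ~65 nL alginate beads at about 0.3 cells per bead. Beads grew about 13 h at room temperature, were stained with nile red, and occupied beads went into 10 equally populated green/red fluorescence ratio bins by large-particle flow cytometry, whose amplicons were Illumina-sequenced.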

| Sequence | AmyQ secretion efficiency |
| --- | --- |
| MKKWMITIAMLKKAGIALFVFISPLKSHKT | 6.51 |
| MKKWMITIAMLKKKRRRLFVFISPLKSHKT | 7.47 |
| MKKWMITIAMLKRRRIALFVFISPLKSHKT | 7.36 |
| MKKWMITIAMRTLAGIALFVFISPLKSHKT | 7.06 |
| MKKWMITIAMSTYTYYTLFVFISPLKSHKT | 5.78 |
| MKKWMITIAMSYTSTKRYFVFISPLKSHKT | 7.55 |
| MKKWMITIAMTMLILAGIALFVFISPLKSHKT | 1.1 |
| MKKWRGGSQSGAIAIVLFMYTKGEAKAAGM | 6.49 |
| MKKWRKRLIIAVSLAIAIVLFMYTKGEAKAAGM | 3.1 |
| MKKWRYTKRQRKLILAGIALFVFISPLKSHKT | 6.51 |
| MKKWSTTIAMLILAGIALFVFISPLKSHKT | 5.92 |
| MKKWTIIAVSLAIAIVLFMYTKGEAKAAGM | 2.14 |
| MKKWTNMSLLIIAVSLAIAIVLFMYTKGEAKAAGM | 2.33 |
| MKLAKRGKSYYPYTSLAITAKAKEL | 8.51 |
| MKLAKRINMVSALTPSTTLAITAKAKEL | 7.42 |
| MKLAKRNFMISMVSALTPSTTLAITAKAKEL | 7.41 |
| MKLAKRTSALTPSTTLAITAKAKEL | 6.93 |
| MKLAKRVKRRKRKTTLAITAKAKEL | 7.36 |
| MKLAKRVRKLTPSTTLAITAKAKEL | 8.89 |
| MKLAKRVRRKRPSTTLAITAKAKEL | 6.87 |
| MKLAKRVSALTPSTTLAIATAKAKEL | 7.06 |
| MKLAKRVSALTPSTTLAIATVLATAKAKEL | 6.28 |

| Sequence | AmyQ secretion efficiency |
| --- | --- |
| MKLAKRVSALTPSTTLAIEAKAKEL | 7.23 |
| MKLAKRVSALTPSTTLAIEEEEAKAKEL | 7.01 |
| MKLAKRVSALTPSTTLAIISTGSAKAKEL | 7.54 |
| MKLAKRVSALTPSTTLAIKKKKRAKAKEL | 7.08 |
| MKLAKRVSALTPSTTLAITAKAAED | 5.72 |
| MKLAKRVSALTPSTTLAITAKAAPD | 7.89 |
| MKLAKRVSALTPSTTLAITAKAAPK | 7.94 |
| MKLAKRVSALTPSTTLAITAKAAPL | 8.19 |
| MKLAKRVSALTPSTTLAITAKAARK | 7.54 |
| MKLAKRVSALTPSTTLAITAKADEE | 6.16 |
| MKLAKRVSALTPSTTLAITAKCKEL | 7.76 |
| MKLAKRVSALTPSTTLAITAKDKEL | 6.63 |
| MKLAKRVSALTPSTTLAITAKEKEL | 7.18 |
| MKLAKRVSALTPSTTLAITAKFKEL | 7.68 |
| MKLAKRVSALTPSTTLAITAKGKEL | 7.3 |
| MKLAKRVSALTPSTTLAITAKHKEL | 6.77 |
| MKLAKRVSALTPSTTLAITAKIKEL | 7.25 |
| MKLAKRVSALTPSTTLAITAKKKEL | 7.78 |
| MKLAKRVSALTPSTTLAITAKLKEL | 6.8 |
| MKLAKRVSALTPSTTLAITAKMKEL | 6.79 |
| MKLAKRVSALTPSTTLAITAKNKEL | 8.25 |
| MKLAKRVSALTPSTTLAITAKPKEL | 6.44 |

| Sequence | AmyQ secretion efficiency |
| --- | --- |
| MKLAKRVSALTPSTTLAITAKRKEL | 8.52 |
| MKLAKRVSALTPSTTLAITAKSKEL | 7.27 |
| MKLAKRVSALTPSTTLAITAKTKEL | 7.68 |
| MKLAKRVSALTPSTTLAITAKVKEL | 6.33 |
| MKLAKRVSALTPSTTLAITAKYKEL | 5.07 |
| MKLAKRVSALTPSTTLAITCKAKEL | 7.57 |
| MKLAKRVSALTPSTTLAITDKAKEL | 7.38 |
| MKLAKRVSALTPSTTLAITEKAKEL | 7.31 |
| MKLAKRVSALTPSTTLAITFKAKEL | 6.49 |
| MKLAKRVSALTPSTTLAITGFVGSTTFTAPTAKAKEL | 6.19 |
| MKLAKRVSALTPSTTLAITGKAKEL | 7.09 |
| MKLAKRVSALTPSTTLAITIKAKEL | 8.5 |
| MKLAKRVSALTPSTTLAITKKAKEL | 6.57 |
| MKLAKRVSALTPSTTLAITLKAKEL | 8.05 |
| MKLAKRVSALTPSTTLAITMKAKEL | 6.37 |
| MKLAKRVSALTPSTTLAITNKAKEL | 7.12 |
| MKLAKRVSALTPSTTLAITQKAKEL | 5.63 |
| MKLAKRVSALTPSTTLAITRKAKEL | 7.25 |
| MKLAKRVSALTPSTTLAITSKAKEL | 8.31 |
| MKLAKRVSALTPSTTLAITTKAKEL | 6.55 |
| MKLAKRVSALTPSTTLAITVKAKEL | 6.82 |
| MKLAKRVSALTPSTTLAITWKAKEL | 5.85 |

| Sequence | AmyQ secretion efficiency |
| --- | --- |
| MKLAKRVSALTPSTTLAITYKAKEL | 6.96 |
| MKLAKRVSALTPSTTLAIVAKAKEL | 6.85 |
| MKLAKRVSALTPSTTLAIVIFAKAKEL | 8.15 |
| MKLKKRFLVALTMCGGLFVTPAKAVKT | 7.15 |
| MKLKKRVSMFKKALTMCGGLFVTPAKAVKT | 7.21 |
| MKLKKRVSMFKRRRTMCGGLFVTPAKAVKT | 6.84 |
| MKLKKRVSMFLVALLMCLLLFVSTPAKAVKT | 4.33 |
| MKLKKRVSMFLVALTMCGGLFVEPAKAVKT | 2.69 |
| MKLKKRVSMFLVALTMCGGLFVFAAKAVKT | 5.56 |
| MKLKKRVSMFLVALTMCGGLFVITVFTAVFTPAKAVKT | 7.26 |
| MKLKKRVSMFLVALTMCGGLFVRRAKAVKT | 7.34 |
| MKLKKRVSMFLVALTMCGGLFVRRRKRAKAVKT | 6.98 |
| MKLKKRVSMFLVALTMCGGLFVTAAKAVKT | 4.92 |
| MKLKKRVSMFLVALTMCGGLFVTPAKAEEE | 2.9 |
| MKLKKRVSMFLVALTMCGGLFVTPAKAVPR | 1.68 |
| MKLKKRVSMFLVALTMCGGLFVTPAKAVST | 2.23 |
| MKLKKRVSMFLVALTMCGGLFVTPAKAVTD | 3.07 |
| MKLKKRVSMFLVALTMCGGLFVTPAKYVKT | 5.18 |
| MKLKKRVSMFLVALTMCGGLFVTPCKAVKT | 2.35 |
| MKLKKRVSMFLVALTMCGGLFVTPFKAVKT | 6.39 |
| MKLKKRVSMFLVALTMCGGLFVTPPFVAKAVKT | 4.47 |
| MKLKKRVSMFLVALTMCGGLFVTPQAKAVKT | 3.89 |

| Sequence | AmyQ secretion efficiency |
| --- | --- |
| MKLKKRVSMFLVALTMCGGLFVTPSFPPTAPAKAVKT | 5.25 |
| MKLKKRVSMFLVALTMCGGLFVTPTKAVKT | 3.85 |
| MKLKKRVSMFLVALTMCGGLFVTPVKAVKT | 2.64 |
| MKLKKRVSMFLVALTMCGGLFVTVIIVAKAVKT | 6.35 |
| MKLKKRVSMFLVALTMCGTPAKAVKT | 2.72 |
| MKLKKRVSMFRKKKRKCGGLFVTPAKAVKT | 7.44 |
| MKLKKRVSMGLVALTMCGGLFVTPAKAVKT | 2.55 |
| MKLKKRVSMSSMFLVALTMCGGLFVTPAKAVKT | 1.95 |
| MKLKKRVSMTSKSSGSCRSLFVTPAKAVKT | 7.23 |
| MKLKKRVSMYTQALTMCGGLFVTPAKAVKT | 5.95 |
| MKLKKRVSYFLVALTMCGGLFVTPAKAVKT | 6.42 |
| MKLKSKLFVICLAAAAIFRKKKVSANAEALDF | 6.32 |
| MKLKSKLFVICLAAAAIFTAAGVSANAEALDF | 7.41 and 6.26 |
| MKLKSKLFVICLAAAAIFTAAGVSANNEALDF | 5.76 |
| MKLKSKLFVICLAAATAAGVSANAEALDF | 5.89 |
| MKLKSKLLLMCLALLIVFVGATTIANAPTH | 8.04 |
| MKLKSKLLLSCLALSTVFVATTIANAKRR | 7.22 |
| MKLKSKLLLSCLALSTVFVATTIANAPRR | 6.72 |
| MKLKSKLLLSCLALSTVFVATTIANAPTR | 6.08 |
| MKLKSKLLLSCLALSTVFVATTIANCPTH | 7.55 |
| MKLKSKLLLSCLALSTVFVATTIANEPTH | 7.21 |
| MKLKSKLLLSCLALSTVFVATTIANHPTH | 4.89 |

| Sequence | AmyQ secretion efficiency |
| --- | --- |
| MKLKSKLLLSCLALSTVFVATTIANIPTH | 5.95 |
| MKLKSKLLLSCLALSTVFVATTIANLPTH | 6.34 |
| MKLKSKLLLSCLALSTVFVATTIANNPTH | 5.17 |
| MKLKSKLLLSCLALSTVFVATTIANSPTH | 3.78 |
| MKLKSKLLLSCLALSTVFVATTICNAPTH | 5.85 |
| MKLKSKLLLSCLALSTVFVATTIGNAPTH | 7.24 |
| MKLKSKLLLSCLALSTVFVATTIKNAPTH | 6.58 |
| MKLKSKLLLSCLALSTVFVATTILNAPTH | 6.08 |
| MKLKSKLLLSCLALSTVFVATTIVNAPTH | 5.07 |
| MKLKSKLLLSCLALSTVFVATTIWNAPTH | 6.19 |
| MKLKSKLLLSCLALSTVFVLFSTATTIANAPTH | 4.84 |
| MKLKSKLLLSCLALSTVFVRKRIANAPTH | 6.91 |
| MKLKSKLRKKCRRRSTVFVATTIANAPTH | 7.48 |
| MKLKSKYKGGCYAAAAIFTAAGVSANAEALDF | 7.31 |
| MKLKSKYYKGCRSTSTVFVATTIANAPTH | 7.35 |
| MKLRKMVLTGSVLSLGLLVSASPAFATSP | 1.54 |
| MKLRKSTKYQSYSLGLLVSASPAFATSP | 6.69 |
| MKLRKVLTGSVLSLGLLDDEEDDAFATSP | 7.86 |
| MKLRKVLTGSVLSLGLLEKDSPAFATSP | 6.38 |
| MKLRKVLTGSVLSLGLLIVSASPAFATSP | 2.48 |
| MKLRKVLTGSVLSLGLLKRRRKKAFATSP | 5.35 |
